Laboratory results published in the supplement of paper PMC10567573.

B1: CAMK2D (parent)
chain: LLKHPNIVRLHDSISEEGFHYLVF
B2: ZMYND11 (parent)
chain: YCSIKCQQEHWHAEHKRTCRRKR

Variants of: B1
Assay: protein stability index of a GFP-peptide fusion (GPS, HEK-293T) (PSI 1-6); higher = more stable
Details: c terminus: a fixed tail appended
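Also: lentivirally expressed fusions sorted by FACS into six bins by GFP to DsRed ratio, PSI derived from sequencing read proportions per bin multiplied by bin number.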

Protein stability index of substitutions, site by site:
N6: C 2.13, D 1.76, E 3.7, F 2.94, H 2.18, I 1.94, K 2.36, L 3.32, P 2.15, Q 3.46, R 2.54, S 1.39, T 3.24, V 3.01, W 2.75, Y 3.11
I7: A 1.95, C 3.93, D 1.99, E 2.67, F 2.39, H 3.65, K 1.56, L 2.98, M 3.55, N 3.17, P 1.76, Q 2.14, R 2.02, S 1.89, T 2.19, W 1.07
V8: A 2.64, D 2.41, E 2.17, F 1.47, G 2.79, H 1.8, I 1.87, K 2.05, L 2.21, M 2.59, P 2.01, Q 1.94, R 1.81, W 3.27, Y 2.91
R9: A 2.1, C 3.88, D 3.18, E 3.23, F 1.26, G 1.79, H 2.1, K 3.39, L 3.22, M 2.74, N 2.7, P 2.45, Q 2.17, S 2.58, T 1.68, V 1.84, W 2.69, Y 2.87
L10: A 2.84, C 2.11, D 1.74, E 2.5, F 3.99, G 1.36, H 2.14, I 2.53, K 2.02, M 3.69, N 2.25, P 2.49, Q 1.7, R 1.17, S 1.86, T 1.43, V 1.75, W 3.54, Y 2.95
H11: A 2.57, C 2.84, D 2.39, E 2.68, F 1.96, I 2.7, K 3.01, L 1.48, N 2.29, P 2.42, Q 2.07, R 2.79, S 1.8, T 2.52, V 1.9, W 2.62, Y 2.88
D12: A 2.96, C 3.3, F 4.12, G 3.51, H 3.02, I 2.54, K 3.1, L 2.47, N 1.61, P 2.38, Q 1.31, R 3.07, S 3, T 2.59, V 2.63, Y 2.35
S13: A 3.1, C 2.82, D 2.46, E 1.47, F 1.5, G 2.59, H 2.91, I 2.96, K 2.81, L 2.29, N 2.13, P 2.75, Q 1.7, R 1.83, V 3.9, W 1.84, Y 2.94
I14: A 1.66, C 2.44, D 1.64, E 2.8, G 1.64, H 1.11, K 2.4, M 1.18, N 2.05, P 2.74, Q 1.78, R 1.75, S 2.15, T 1.91, V 2.11, W 1.4, Y 1.89
S15: A 2.19, C 2.51, D 1.44, E 2.57, F 2.56, G 1.8, H 2.1, I 3.54, K 2.45, L 2.19, M 3.4, N 2.31, P 2.27, R 2.66, T 1.3, V 2.2, W 3.22, Y 2.34
E16: A 2.88, C 2.3, D 1.67, F 2.32, K 1.21, L 2.47, M 2.71, N 2.87, P 1.62, Q 3.03, R 1.67, S 1.19, T 1.39, V 1.39, W 1.92
E17: A 2.91, C 2.99, D 2.66, F 2.27, G 2.8, H 1.87, K 2.71, L 3.59, M 4.04, N 3.79, P 2.75, Q 1.84, R 2.11, S 2.93, T 2.31, V 2.47, W 2.94, Y 2.04
G18: A 3.26, C 1.98, D 2.39, E 1.63, F 2.73, H 1.78, I 2, K 3.36, L 3.43, M 2.1, N 1.5, P 2.03, Q 1.94, R 3.12, S 2.3, T 1.87, W 1.61, Y 1.8
F19: A 1.81, C 1.37, D 1.73, E 2.38, G 1.23, H 1.73, I 2.73, K 3.11, M 2.08, N 2.03, P 1.53, Q 2.66, R 2.02, S 1.45, T 3.57, V 1.52, W 2.42, Y 2.08
H20: A 1.73, C 2.07, D 1.96, E 3.1, F 2.39, I 3.5, K 2.66, L 2.31, M 2.05, P 2.08, Q 2.65, R 2.08, S 2.75, T 3.25, V 3.17, W 1.42, Y 1.41
Y21: A 1.38, C 2, D 2.51, E 2.32, F 2.92, G 2.37, H 2.03, I 1.79, K 1.8, L 1.97, M 2.58, N 2.39, P 1.96, Q 2.39, R 2.63, S 2.33, T 2.25, W 2.79
L22: A 3.02, C 2.18, D 2.08, E 2.22, F 2.36, G 1.57, H 2.19, I 2.96, K 2.54, M 2.59, N 1.75, P 1.81, Q 1.3, R 1.28, S 1.81, T 2.39, V 1.03, W 1.88, Y 2.02
V23: A 2.81, D 2.19, E 1.38, F 1.91, G 2.12, H 2.57, I 1.99, K 1.68, L 2, M 2.91, N 3.14, P 1.84, Q 1.87, R 3.22, S 1.85, T 3.35, W 2.78, Y 1.22
F24: A 1.62, C 1.84, D 2.21, E 1.73, G 2.47, H 2.39, K 1.71, L 2.94, N 1.51, P 1.98, Q 1.85, R 2.06, S 2.13, T 1.15, V 2.12, W 1.22, Y 2.28

Variants of: B2
Assay: as above
Details: c terminus: native

Protein stability index, by site and new letter:
Y1: A 3.95, C 3.8, D 2.58, E 2.91, F 1.67, G 3.74, H 3.9
